Assay results as given in the supplement of paper PMC12042874.
± gives the uncertainty stated by the source.

Assay: amyloid nucleation score (Sup35N fusion, yeast selection) (log enrichment); library NNK3; higher = more nucleation; inactive = no reads after selection
Summary of the method: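 Using DiMSum, nucleation scores were taken as the log enrichment of output over input reads, centred on the mode score of non-aggregating sequences. The input and output reads came from Illumina sequencing of plasmid inserts, with sequences under 100 input reads excluded. The yeast were psi-negative, expressed Sup35N fused to peptides of 20 random codons, were induced with 100 μM copper sulfate for 24 hours, and were grown 7 days at 30°C on medium lacking adenine and uracil.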
With LFFYRMYDGTWKGDLYIASE the amyloid nucleation score was “inactive”.
For GSEQSVEDGFAWMKDTYFCL, the amyloid nucleation score was “inactive”.
In the case of RYLPRTSFPTIL, the amyloid nucleation score is reported as “inactive”.
With LIYRSLPFSCLSSGV the amyloid nucleation score was “inactive”.
In the case of APGCGTNLGMIFALGWALWR, the amyloid nucleation score is reported as “inactive”.
In the case of IMCIYEGAVSMYMRVWSNMS, the amyloid nucleation score is reported as “inactive”.
In the case of AGQNQVRDGKVIVKACSCMS, the amyloid nucleation score is reported as “inactive”.
With SMFMLCVSADGEFFNCGTNH the amyloid nucleation score was “inactive”.
In the case of VLKKGYNKRYVGECIANCTV, the amyloid nucleation score is reported as “inactive”.
For SVIGTSTSFCLHWLWGWALC, the amyloid nucleation score was “inactive”.
In the case of IVLYRKVRPCTWAE, the amyloid nucleation score is reported as “inactive”.
In the case of VIGRVRIGLVFRSTIGFSEG, the amyloid nucleation score is reported as “inactive”.
With AVLVDSWRWERFYFMTTIKT the amyloid nucleation score was “inactive”.
In the case of FWNEVMNRLPGLL, the amyloid nucleation score is reported as “inactive”.
Substance HTILENFSSLVVMRDGRRNG has an amyloid nucleation score of -0.275 ± 0.52.
In the case of ELRSL, the amyloid nucleation score is reported as “inactive”.
For MGQAEGFLNGSSEQVEPTFA, the amyloid nucleation score was “inactive”.
In the case of MMGTSWDWRYRYLRLRGEEC, the amyloid nucleation score is reported as “inactive”.
With LSRDGVFVPPTSRSYHPRLK the amyloid nucleation score was “inactive”.
EHCSGNFRLNLSCDEVHIWM showed an amyloid nucleation score of 2.99 ± 0.063.
For YNRFKKLSMA, the amyloid nucleation score was “inactive”.
IFCGPCLSSYRPKWTGMTSY gave an amyloid nucleation score of 2.12 ± 0.06.
With ICEVNCGLVIWWVRRFEGAS the amyloid nucleation score was “inactive”.
In the case of FTWYRR, the amyloid nucleation score is reported as “inactive”.
VNNPQVDHRVLFNNM showed an amyloid nucleation score of -0.426 ± 0.61.
For GVDLDLLICGYMLWMDYCSG, the amyloid nucleation score was “inactive”.
In the case of GGYVDLRLMT, the amyloid nucleation score is reported as “inactive”.
With LGNKGNEMPLRSKVKRWFLL the amyloid nucleation score was “inactive”.
In the case of FFFVSSIRIICRV, the amyloid nucleation score is reported as “inactive”.
In the case of FSWSLSLLHIPYKQWRGRWV, the amyloid nucleation score is reported as “inactive”.
In the case of KSKHTVMRWSLYSRRIMLVF, the amyloid nucleation score is reported as “inactive”.
LQKCNWRRMVGRNQCWGKAR showed an amyloid nucleation score of 0.89 ± 0.19.
Substance VFLCMGTYDTCFL has an amyloid nucleation score of 0.638 ± 0.16.
For RNRWPLPRYICRFKGFSHVV, the amyloid nucleation score was “inactive”.
For TKGLDILDGVCVGCLRCQVD, the amyloid nucleation score was “inactive”.
In the case of QHWWSYWMFSGKRQCVVFPV, the amyloid nucleation score is reported as “inactive”.
For FMTIIKRWDVWNFCRSSGAV, the amyloid nucleation score was “inactive”.
In the case of ICELPNIYDVS, the amyloid nucleation score is reported as “inactive”.
SGDNMPAWVDHMSCHKRWSG gave an amyloid nucleation score of -0.474 ± 1.1.
For FYMYLTSVCA, the amyloid nucleation score was “inactive”.
With ALVWFENVSVQELQWIKLTS the amyloid nucleation score was “inactive”.
With TSSETNLAYCSAVRGGLRKQ the amyloid nucleation score was “inactive”.
In the case of DVQCGVIMRGLDKYFDLNSA, the amyloid nucleation score is reported as “inactive”.
With IFLRYSLSSRYHRCLLLKES the amyloid nucleation score was “inactive”.
With HVMGANREPF the amyloid nucleation score was “inactive”.
Work on RVIMKIIVTFTA yielded an amyloid nucleation score of 0.832 ± 0.23.
In the case of VKYYDFCEPGRGYKDIRRL, the amyloid nucleation score is reported as “inactive”.
Work on VHNYHERALKKHEGTTVRNF yielded an amyloid nucleation score of 0.154 ± 0.4.
For IIGWDDFLLVYNIKLYHNS, the amyloid nucleation score was “inactive”.
For CYVLVMKIPSHFKGTFMWHI, the amyloid nucleation score was “inactive”.
For HYNVFGGRLSSSRNMYKGVY, the amyloid nucleation score was “inactive”.
In the case of GSMIFFSICSHFLYLLHTYT, the amyloid nucleation score is reported as “inactive”.
TCNNMYCWV showed an amyloid nucleation score of 2.3 ± 0.075.
For YKPLFVCSRHLMNRELCTGY, the amyloid nucleation score was “inactive”.
For LTNGRNTYFLLSRYYFGTTS, the amyloid nucleation score was “inactive”.
In the case of RLSLKSFVRFQRLCP, the amyloid nucleation score is reported as “inactive”.
With WRFRIVR the amyloid nucleation score was “inactive”.
With AVRSFLTWISMN the amyloid nucleation score was “inactive”.
With WIRDFYEFAEWSSDTCGIRI the amyloid nucleation score was “inactive”.
KFKFVLILSEDAKAT showed an amyloid nucleation score of 1.23 ± 0.17.
For MIHAFGFLMMCLVQSYLELF, the amyloid nucleation score was “inactive”.
For LSGPRYLVVKSGCACRDSFR, the amyloid nucleation score was “inactive”.
For SVWMGVEPGHYLYQRVLGLV, the amyloid nucleation score was “inactive”.
In the case of MMWDL, the amyloid nucleation score is reported as “inactive”.
With RCDRVCGWGDRFNAGSGYRW the amyloid nucleation score was “inactive”.
For WVFSSNVRKYMRALRRRYSD, the amyloid nucleation score was “inactive”.
With NRYYPVGNYCARTWQTFTFL the amyloid nucleation score was “inactive”.
Work on YLFVELYYL yielded an amyloid nucleation score of 0.187 ± 0.75.
With IAGCMGNCGLCRAMVICWMN the amyloid nucleation score was -0.409 ± 0.7.
With FLIDNCYWYPHCAPIVAPWL the amyloid nucleation score was “inactive”.
In the case of ISTLSVSLS, the amyloid nucleation score is reported as -0.258 ± 0.36.
For MGIQKTDRWRLWYYYWMREN, the amyloid nucleation score was “inactive”.
With YEPTSAK the amyloid nucleation score was “inactive”.
With RYDLSVSIATMVNVYFLLRG the amyloid nucleation score was “inactive”.
In the case of LKSCGMRVSKCCFIDICELC, the amyloid nucleation score is reported as 0.022 ± 0.75.
In the case of AVSAVCSAVCGLMSSSTDMD, the amyloid nucleation score is reported as 0.527 ± 0.26.
In the case of SVYDCQLVACHLMRDHKK, the amyloid nucleation score is reported as “inactive”.
For VPDLYSTEDGFSCCVSEYCT, the amyloid nucleation score was “inactive”.
With SWVCCF the amyloid nucleation score was “inactive”.
